Patent US20250066456A1 (NOVAVAX, published 2025)

Key:
[1] = molecular target: BV2589 (recombinant CoV S glycoprotein, BQ.1.1) (SARS-CoV-2, UniProt P0DTC2 14-1273); experiment: ELISA on coated rS
[2] = molecular target: T1, Delta Plus CoV S glycoprotein (recombinant) (Severe acute respiratory syndrome …, UniProt P0DTC2 14-1273)
[3] = molecular target: BV2425 (recombinant CoV S glycoprotein, Alpha) (SARS-CoV-2, UniProt P0DTC2 14-1273); experiment: ELISA, plate coated with rS, serial dilution of the mAb, anti-mouse HRP, A450
[4] = molecular target: BV2443 (recombinant CoV S glycoprotein, Gamma) (SARS-CoV-2, UniProt P0DTC2 14-1273); experiment: as above
[5] = molecular target: BV2465 (recombinant CoV S glycoprotein, Delta) (SARS-CoV-2, UniProt P0DTC2 14-1273); experiment: as above
[6] = molecular target: BV2438 (recombinant CoV S glycoprotein, Beta) (SARS-CoV-2, UniProt P0DTC2 14-1273); experiment: as above
[7] = molecular target: BV2509 (recombinant CoV S glycoprotein, BA.1) (SARS-CoV-2, UniProt P0DTC2 14-1273); experiment: as above
[8] = molecular target: BV2373 (recombinant CoV S glycoprotein, Prototype) (SARS-CoV-2, UniProt P0DTC2 14-1273); experiment: ELISA on coated rS
[9] = molecular target: T1, Delta Plus CoV S glycoprotein …; experiment: hACE2 receptor inhibition ELISA on coated rS; competitor hACE2-His

B1: 322.3 (antibody, V domains shown)
VH: RVQLQQSGPELVKPGASVTISCKASGYIFTSDYIHWVKQRPGQGPEWIGWIYPGNINTKYNEKFKGKATLTADKSSSTAYMQLSSLTSEDSAVYFCARDDGNLYYYAMDYWGQGTSVTVSS
VL: NIVLTQSPASLAVSLGQRATISCRASESVDSYGSSFMHWYQQKPGQPPKLLIYLASNLESGVPARFSGSGSRTDFTLTIDPVEADDAATYYCQQNNEDPRTFGGGTKLEIK
**Q.** Which EC50 [1] does the source give for B1 here?
**A.** 0.077 µg/mL

B2: 425.6 (antibody, V domains shown)
VH: VQLKQSGPSLVQPSQSLSITCTVSGFSLTSYGIHWVRQSPGKGLEWLGVIWRGGSTDYNAAFMSRLTITKDNSKSQVFFKMNSLQADDTAIYYCATHTEGDDVDYWGQGTSVTVSS
VL: QIVLTQSPAIMSVSPGEKVTMTCSASSTMSFMYWYQQKPGSSPRLLIYDTSNLASGVPVRFSGSGSGTSYSLTISRVEAEDAATYYCQQWNTYPLTFGAGTKLELKR
**Q.** With B2 as the binder, how does the EC50 [2] read?
**A.** 0.0098 µg/mL

**Q.** What about the EC50 [3] of the same binder?
**A.** 0.011 µg/mL

**Q.** What about the EC50 [4] of the same binder?
**A.** 0.01 µg/mL

**Q.** And the EC50 [5]?
**A.** 0.012 µg/mL

**Q.** And the EC50 [6]?
**A.** 0.011 µg/mL

**Q.** What about the EC50 [7] of the same binder?
**A.** > 1 µg/mL

B3: 35.13 (antibody, V domains shown)
VH: QVQLQQSGAELGKPGASVKLSCRASGYTFTRYYIYWVKQRPGQGLEWIGEINPSNGDTHFNEKFKTKATLTVDKSSSSAHIHLTSLTSEDSAVYYCSIHAYSFDFWGQGTTLTVSS
VL: EIQMTQSPSSMSASLGDRITITCQATQDIVKNLNWYQQKPGKPPSFLIYHATELAKGVPSRFSGSGSGSDYSLTISNLESEDFADYYCLQFYDFPFTFGAGTKLELKR
**Q.** Which results are given for B3?
**A.** EC50 [8]: 0.007 µg/mL; IC50 [9]: 0.065 µg/mL
